Data published in US20250034266A1 (ZAI LAB SHANGHAI, published 2025).

Legend:
cynomolgus CCR8 [1] = target: T1, cynomolgus CCR8 (cynomolgus, UniProt G7NYJ2 1-355); assay: FACS on HEK293-Cynomolgus CCR8 cells
T1 construct: whole, on cells; also called HEK293-Cynomolgus CCR8; ExpiCHO-S cynomolgus CCR8
Protocol: (§1) The binding affinities of purified antibodies were determined on human CCR8 and cynomolgus CCR8 over-expressing cells. Briefly, CFSE (Life technology, Cat #: C34554) labeled CHO-K1-human CCR8 cells mixed with CHO-K1 cells, CFSE labeled HEK293-human CCR8 cells mixed with H1EK293 cells, or CFSE labeled H1EK293-cynomolgus CCR8 cells mixed with HTEK293 cells were used in the assay. The mix ratio was 1:1. A total of 5×10⁴ mixed cells for each well were seeded in 96-well plate and washed by FACS buffer (DPBS containing 10% FBS) once. Cells were incubated by series diluted purified hybridoma antibodies for 1 hour at 4° C. Antibodies were prepared with 3-fold serial dilution ranging from 200 nM to 0.003 nM in FACS buffer. After primary antibody incubation, cells were washed by FACS buffer for three times. Then, cells were stained with secondary antibody (Alexa Flu647-conj gated rabbit anti-mouse IgG, Jackson ImmunoResearch, #315606046) at 1:600 dilution in FACS buffer and incubated for 0.5 hour at 4° C. […] FlowJo software was used for analysis. Data was plotted as the logarithm of antibody concentration versus mean fluorescence signals. EC₅₀ values were calculated in GraphPad Prism 8 (GraphPad Software) using a log(agonist) vs. response-Variable slope (4 parameters) curve fit. […] The EC₅₀s of the selected antibodies on human CCR8 are less than 5 nM except those of 262C2G7 and 234G9C12. The EC₅₀s of the selected antibodies on cynomolgus CCR8 are less than 1 nM except that of 348E2D11 (Table 8).

human CCR8 [2] = target: T2, human CCR8 (human, UniProt P51685 1-355); assay: FACS, hybridoma supernatant on CHO-K1-human CCR8 cells
T2 construct: whole, on cells; In the β-arrestin assay CCR8 is fused to the ProLink (PK) tag; also called hCCR8; CHO-K1-human CCR8
Protocol: (§2) Binding of hybridoma supernatant on CHO-K1-human CCR8 and ExpiCHO-S cynomolgus CCR8 cells. A total of 660 96-well plates were seeded and screened by FACS binding from the hybridoma derived from immunized animals.
(§3) To obtain antibodies cross-reactive to human and cynomolgus CCR8, hybridomas from mice immunized with human and cynomolgus CCR8 DNAs were screened by FACS. Briefly, 50 μL ExpiCHO-S cells transfected with human CCR8 or cynomolgus CCR8 (cell density: 2×10⁶ cells/mL, viability>90%) were incubated with equal volume hybridoma supernatant in 96 well plate (Corning) at 4° C. for 1 hour. […] Finally, the mixture was washed and resuspended with FACS buffer, and subjected to FACS analysis on BD FACS Celesta.

human CCR8 [3] = target: T2, human CCR8; assay: FACS on HEK293-human CCR8 cells
Protocol: as §1

human CCR8 [4] = target: T2, human CCR8; assay: FACS on CHO-K1-human CCR8 cells
Protocol: as §1

human CCR8 [5] = target: T2, human CCR8; assay: FACS competition, hybridoma supernatant with 4 nM AF647-human CCL1 on human CCR8 cells
cynomolgus CCR8 [6] = target: T1, cynomolgus CCR8; assay: FACS, hybridoma supernatant on cynomolgus CCR8 cells
Protocol: as §2, §3

T1 sequence (G7NYJ2 entry or part of it): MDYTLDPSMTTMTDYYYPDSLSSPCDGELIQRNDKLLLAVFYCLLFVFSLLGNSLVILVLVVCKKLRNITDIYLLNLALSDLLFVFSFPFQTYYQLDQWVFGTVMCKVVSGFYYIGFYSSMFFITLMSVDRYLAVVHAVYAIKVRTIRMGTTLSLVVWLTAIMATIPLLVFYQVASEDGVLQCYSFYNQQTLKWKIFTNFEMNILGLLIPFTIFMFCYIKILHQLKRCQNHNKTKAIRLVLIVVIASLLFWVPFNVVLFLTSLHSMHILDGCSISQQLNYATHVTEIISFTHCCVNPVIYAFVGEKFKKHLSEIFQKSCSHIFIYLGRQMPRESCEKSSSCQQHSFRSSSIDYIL
T2 sequence (P51685 whole entry, the tested form may be a part): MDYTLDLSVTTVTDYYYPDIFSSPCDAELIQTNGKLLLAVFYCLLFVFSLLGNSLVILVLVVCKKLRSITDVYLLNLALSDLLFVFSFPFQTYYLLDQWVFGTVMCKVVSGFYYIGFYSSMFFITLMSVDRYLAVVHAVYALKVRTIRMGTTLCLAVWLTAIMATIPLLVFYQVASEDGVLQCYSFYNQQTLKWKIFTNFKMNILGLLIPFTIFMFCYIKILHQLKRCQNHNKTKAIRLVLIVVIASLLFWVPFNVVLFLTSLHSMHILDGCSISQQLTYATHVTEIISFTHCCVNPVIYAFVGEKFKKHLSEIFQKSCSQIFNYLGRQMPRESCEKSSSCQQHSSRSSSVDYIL

Binder | EC50 (cynomolgus CCR8 [1]) [nM] | Max MFI (cynomolgus CCR8 [1]) [MFI] | Binding Ratio (GFP + MFI)/(GFP - MFI) (human CCR8 [2]) | EC50 (human CCR8 [3]) [nM] | Max MFI (human CCR8 [3]) [MFI] | EC50 (human CCR8 [4]) [nM] | Max MFI (human CCR8 [4]) [MFI] | Inhibition Rate (%) (human CCR8 [5]) | Binding Ratio (GFP + MFI)/(GFP - MFI) (cynomolgus CCR8 [6])
191E12H8 (antibody, V domains shown, Murine hybridoma antibody) VH: DVQLQESGPGLVKPSQSLSLTCSVTGYSITSGYYWNWIRQFPGNKLEWMGYISYDGSNNYNPSLKNRISITRDISKNQFFLKLNSVTTEDTATYYCARQIGLRRGAMDYWGQGTSVTVSS VL: DIQMTQSSSYLSVSLGGRVTITCKASDHINTWLAWYQQKPGNAPRLLISGSTSLKAGVASRFSGSGSGKDYTLTITSLQTEDVATYYCQQYWGIPFTFGGGTKLEIK | 0.397 | 5190 | 345 | 1.5 | 10700 | 2.25 | 24000 | 84.8 | 91.4
273H2G6 (antibody, V domains shown, Murine hybridoma antibody) VH: DVQLQESGPGLVKPSQSLSLTCSVTGYSITSGYYWNWIRQFPGNKLEWMGYISYDGSNNYNPSLKNRISITRDISKNQFFLKLNSVTTEDTATYYCARQVGLRRGAMDYWGQGTSVTVSS VL: DIQMTQSSSYLSVSLGGRVTITCKASDHINNWLAWYQQKPGNAPRLLISGSTSLKAGVASRFSGSGSGKDYTLSITSLQTEDVATYYCQQYWSIPYTFGGGTKLEIK | 0.154 | 3500 | 120 | 0.149 | 4680 | 0.137 | 8490 | 90.2 | 112
348E2D11 (antibody, V domains shown, Murine hybridoma antibody) VH: QVQLVETGGGLVRPGNSLKLSCVTSGFSFSNYRMHWLRQPPGKRLEWIAVITVKSDNYGANYAESVKGRFTISRDDSKSSVYLQMNRLREEDTATYYCSSLGRVAYWGQGTLVTVSA VL: DIVMTQSQKFMFTSVGDRVSVTCKASQNVDTNVVWYQQKPGQSPKALIYSASSRYSGVPDRFTGSGSGTDFTLTISNVQSEDLAEYFCQQHNSFPLTFGAGTKLELI |  | 7580 | 169 | 0.111 | 11000 | 0.397 | 51500 | 100 | 74.2
149F2C10 (antibody, V domains shown, also called 1491F2C0) VH: EVQLVESGGGLVQPKGSLKLSCAASGFTFNTYAMNWVRQAPGKGLEWVARIRSKSNFYATYYADSVKDRFTISRDDSQDMLYLQMNILKTEDTAIYYCVRGRDYGSSYAMDYWGQGTSVTVSS VL: DIVMTQAAPSVPVTPGESVSISCRSSKSLLHSNGNTYLYWFLQRPGQSPQLLIYRMSNLASGVPDRFSGSGSGTAFTLRISRVEAEDVGVYYCMQHLEYPLTFGAGTKLELK | 0.479 | 8830 | 170 | 0.346 | 12000 | 0.878 | 50700 | 99.2 | 98.2

Further binders by falling EC50 (human CCR8 [3]), results first:

EC50 (cynomolgus CCR8 [1]) [nM] | Max MFI (cynomolgus CCR8 [1]) [MFI] | Binding Ratio (GFP + MFI)/(GFP - MFI) (human CCR8 [2]) | EC50 (human CCR8 [3]) [nM] | Max MFI (human CCR8 [3]) [MFI] | EC50 (human CCR8 [4]) [nM] | Max MFI (human CCR8 [4]) [MFI] | Inhibition Rate (%) (human CCR8 [5]) | Binding Ratio (GFP + MFI)/(GFP - MFI) (cynomolgus CCR8 [6]) | Binder
0.212 | 4140 | 413 | 1.42 | 9840 | 18.5 | 73900 | 88.9 | 101 | 234G9C12 (antibody, V domains shown, Murine hybridoma antibody; also called 234G4C12) VH: DVQLQESGPGLVKPSQSLSLTCSVTGYSITSGYYWNWIRQFPGNKLEWMGYTSYDGSNNYNPSFKNRISITRDISKNQFFLKLNSVTTEDTATYYCARQIGLRRGAMDHWGQGTSVTVSS VL: DIQMTQSSSYLSVSLGGRVTITCKASDHINNWLAWYQQKPGNAPRLLISGSTSLRAGVASRFSGSGSGKDYTLTITSLQTEDVATYYCQQYWGIPFTFGGGTKLEIK
0.422 | 8940 | 168 | 0.278 | 11900 | 0.456 | 51500 | 99.1 | 92.2 | 160D1E3 (antibody, V domains shown, Murine hybridoma antibody) VH: EVQLVESGGGLVQPKGSLKLSCAASGFTFNTYAMNWVRQAPGKGLEWVARIRSKSNYYATYYADSVKDRFTISRDDSQDMLYLQMNNLKTEDTAIYYCVRGRDYGSSYAMDYWGQGTSVTVSS VL: DIVMTQAAPSVPVTPGESVSISCRSSKSLLHSNGNTYLYWFLQRPGQSPQLLIYRMSNLASGVPDRFSGSGSGTAFTLRISRVEAEDVGVYYCMQHLEYPLTFGAGTKLELK
0.32 | 8290 | 198 | 0.277 | 11900 | 0.652 | 54900 | 99.4 | 102 | 164G10D6 (antibody, V domains shown, Murine hybridoma antibody; also called 164G10C6) VH: EVQLVESGGGLVQPKGSLKLSCAASGFTFNTYAMNWVRQAPGKGLEWVARIRSKSNFYATYYADSVKDRFTISRDDSQDMLYLQMNILKTEDTAIYYCVRGRDYGSSYAMDYWGQGTSVTVSS VL: DIVMTQAAPSVPVTPGESVSISCRSSKSLLHSNGNTYLYWFLQRPGQSPQLLIYRMSNLASGVPDRFSGSGSGTAFTLRISRVEAEDVGVYYCMQHLEYPLTFGAGTKLELK
0.699 | 10700 | 215 | 0.24 | 11600 | 0.64 | 51400 | 99.1 | 127 | 153D4G2 (antibody, V domains shown, Murine hybridoma antibody; also called 153D3G2; 1531D4G2) VH: EVQLVESGGGLVQPKGSLKLSCAASGFTFNTYAMNWVRQAPGKGLEWVARIRSKSNFYATYYADSVKDRFTISRDDSQDMLYLQMNILKTEDTAIYYCVRGRDYGSSYAMDYWGQGTSVTVSS VL: DIVMTQAAPSVPVTPGESVSISCRSSKSLLHSNGNTYLYWFLQRPGQSPQLLIYRMSNLASGVPDRFSGSGSGTAFTLRISRVEAEDVGVYYCMQHLEYPLTFGAGTKLELK
0.163 | 3200 | 145 | 0.142 | 3620 | 0.334 | 10200 | 94.7 | 133 | 204A2G12 (antibody, V domains shown, Murine hybridoma antibody) VH: DVQLQESGPGLVKPSQSLSLTCSVTGYSITSGYYWNWIRQFPGNKLEWMGYISYDGTNNYNPSLKNRISITRDTSKNQFFLKLTSVTTEDTATYYCARQVGLRRAWFAYWGQGTLVTVSA VL: DIQMTQSSSFLSVSLGGRVTITCKASDHINYWLAWYQQKPGNAPRLLISGATSLETGVPSRFSGSGSGKDYTLTITSLQNEDVATYYCHQYWSTPTFGSGTKLEIK
0.216 | 2940 | 404 | 0.139 | 7210 | 126 | 86400 | 92.4 | 99.8 | 262C2G7 (antibody, V domains shown, Murine hybridoma antibody) VH: DVHLQESGPGLVKPSQSLSLTCSVTGYSITSGYYWNWIRQFPGNKLEWMGYISYDGSNNYNPSLKNRISITRDISKNQFFLKLNSVTTEDTATYYCARQIGLRRGAMDYWGQGTSVTVSS VL: DIQMTQSSSYLSVSLGGRVTITCKASDHINNWLAWYQQKPGNAPRLLISGSTSLKAGVASRFSGSGSGKDYTLTITSLQTEDVATYYCQQYWGIPFTFGGGTKLEIK
